From US7148006

Key:
[1] = biological target: T1, NS5A 1a-wt (full-length NS5A from IFN-resistant HCV-1a, untagged), P26664
T1 chain: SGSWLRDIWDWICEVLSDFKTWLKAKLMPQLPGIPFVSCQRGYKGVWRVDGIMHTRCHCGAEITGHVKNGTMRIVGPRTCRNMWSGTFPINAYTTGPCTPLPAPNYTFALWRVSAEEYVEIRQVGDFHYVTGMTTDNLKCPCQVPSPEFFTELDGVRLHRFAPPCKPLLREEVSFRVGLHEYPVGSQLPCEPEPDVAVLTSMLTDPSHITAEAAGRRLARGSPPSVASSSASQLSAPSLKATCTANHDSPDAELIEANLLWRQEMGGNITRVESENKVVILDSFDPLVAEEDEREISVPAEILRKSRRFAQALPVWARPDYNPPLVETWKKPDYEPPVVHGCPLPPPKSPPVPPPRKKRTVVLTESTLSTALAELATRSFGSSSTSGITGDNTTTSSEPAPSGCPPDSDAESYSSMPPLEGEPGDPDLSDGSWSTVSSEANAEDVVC

[2] = biological target: NS5A 1b-wt (untagged, expressed from pYES-NS5A 1b-wt)
[3] = biological target: NS5A 1b-4 (untagged, expressed from pYES-NS5A 1b-4)
[4] = biological target: NS5A 1b-2 (untagged, expressed from pYES-NS5A 1b-2)
[5] = biological target: NS5A 1b-5 (untagged, expressed from pYES-NS5A 1b-5)
[6] = biological target: GST (glutathione-S-transferase alone) [GST: P08515]
[7] = biological target: T2, GST-NS5A (HCV-1a NS5A aa 1-427 fused in frame with glutathione-S-transferase), P26664
T2 chain: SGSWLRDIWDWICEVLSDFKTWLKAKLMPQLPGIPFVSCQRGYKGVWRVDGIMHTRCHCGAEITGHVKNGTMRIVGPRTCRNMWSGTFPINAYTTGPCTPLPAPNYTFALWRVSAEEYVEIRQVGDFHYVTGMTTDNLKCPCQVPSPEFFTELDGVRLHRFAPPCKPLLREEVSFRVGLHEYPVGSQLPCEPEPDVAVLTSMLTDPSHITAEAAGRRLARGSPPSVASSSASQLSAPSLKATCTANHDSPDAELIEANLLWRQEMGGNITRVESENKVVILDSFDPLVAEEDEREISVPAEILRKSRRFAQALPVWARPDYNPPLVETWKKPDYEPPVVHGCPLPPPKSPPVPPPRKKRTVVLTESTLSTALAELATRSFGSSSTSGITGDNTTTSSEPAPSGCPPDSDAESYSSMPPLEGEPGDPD

[8] = biological target: vaccinia virus K3L protein, P18378

B1: wild type human PKR, full length (aa 1-551) (protein)
chain: MAGDLSAGFFMEELNTYRQKQGVVLKYQELPNSGPPHDRRFTFQVIIDGREFPEGEGRSKKEAKNAAAKLAVEILNKEKKAVSPLLLTTTNSSEGLSMGNYIGLINRIAQKKRLTVNYEQCASGVHGPEGFHYKCKMGQKEYSIGTGSTKQEAKQLAAKLAYLQILSEETSVKSDYLSSGSFATTCESQSNSLVTSTLASESSSEGDFSADTSEINSNSDSLNSSSLLMNGLRNNQRKAKRSLAPRFDLPDMKETKYTVDKRFGMDFKEIELIGSGGFGQVFKAKHRIDGKTYVIKRVKYNNEKAEREVKALAKLDHVNIVHYNGCWDGFDYDPETSDDSLESSDYDPENSKNSSRSKTKCLFIQMEFCDKGTLEQWIEKRRGEKLDKVLALELFEQITKGVDYIHSKKLIHRDLKPSNIFLVDTKQVKIGDFGLVTSLKNDGKRTRSKGTLRYMSPEQISSQDYGKEVDLYALGLILAELLHVCDTAFETSKFFTDLRDGIISDIFDKKEKTLLQKLLSKKPEDRPNTSEILRTLTVWKKSPEKNERHTC
**Q.** What does the source list for B1?
**A.** level of basally phosphorylated eIF-2α relative to total (isoelectric focusing, densitometry) [1]: NS5A, 9.8% (lane 2); level of unphosphorylated eIF-2α in yeast RY1-1 over vector control [1]: approximately an 11-fold increase in the level of unphosphorylated eIF-2α; eIF-2α serine 51 phosphorylation in yeast RY1-1 (isoelectric focusing immunoblot) [2]: exhibited a significant reduction in the level of hyper-phosphorylated eIF-2α; eIF-2α serine 51 phosphorylation in yeast RY1-1 (isoelectric focusing immunoblot) [3]: possessed predominantly the hyper-phosphorylated isoform of eIF-2α, similar to the vector control strain; eIF-2α serine 51 phosphorylation in yeast RY1-1 (isoelectric focusing immunoblot) [4]: possessed predominantly the hyper-phosphorylated isoform of eIF-2α, similar to the vector control strain; eIF-2α serine 51 phosphorylation in yeast RY1-1 (isoelectric focusing immunoblot) [5]: possessed predominantly the hyper-phosphorylated isoform of eIF-2α, similar to the vector control strain; PKR autophosphorylation and phosphorylation of an exogenous histone substrate, in vitro kinase assay [6]: Equal molar levels of GST had no effect upon PKR activity; PKR autophosphorylation and phosphorylation of an exogenous histone substrate, in vitro kinase assay [7]: as little as 0.2 pmol of NS5A can inhibit 1.8 pmol of PKR; level of basally phosphorylated eIF-2α relative to total (isoelectric focusing, densitometry) [8]: K3L, 11.7% (lane 3)
